{"source": "patent US20120108504A1", "about": "(TEMPLE UNIVERSITY OF THE COMMONWEALTH SYSTEM OF HIGHER …, published 2012)", "binders": {"B1": {"name": "Compound (1) [Tyr(I2)-Ser-Thr(α-GalNAc)-Glu-Val-Val-Ala-Leu-Ser-Arg-AcpNH2] (peptide)", "peptide": "[Tyr(3,5-I2)]ST(αGalNAc)EVVALSR[Ahx]-NH2"}}, "target": "T1, leptin receptor (ObR) (human, UniProt P48357 22-1165)", "T1 sequence": "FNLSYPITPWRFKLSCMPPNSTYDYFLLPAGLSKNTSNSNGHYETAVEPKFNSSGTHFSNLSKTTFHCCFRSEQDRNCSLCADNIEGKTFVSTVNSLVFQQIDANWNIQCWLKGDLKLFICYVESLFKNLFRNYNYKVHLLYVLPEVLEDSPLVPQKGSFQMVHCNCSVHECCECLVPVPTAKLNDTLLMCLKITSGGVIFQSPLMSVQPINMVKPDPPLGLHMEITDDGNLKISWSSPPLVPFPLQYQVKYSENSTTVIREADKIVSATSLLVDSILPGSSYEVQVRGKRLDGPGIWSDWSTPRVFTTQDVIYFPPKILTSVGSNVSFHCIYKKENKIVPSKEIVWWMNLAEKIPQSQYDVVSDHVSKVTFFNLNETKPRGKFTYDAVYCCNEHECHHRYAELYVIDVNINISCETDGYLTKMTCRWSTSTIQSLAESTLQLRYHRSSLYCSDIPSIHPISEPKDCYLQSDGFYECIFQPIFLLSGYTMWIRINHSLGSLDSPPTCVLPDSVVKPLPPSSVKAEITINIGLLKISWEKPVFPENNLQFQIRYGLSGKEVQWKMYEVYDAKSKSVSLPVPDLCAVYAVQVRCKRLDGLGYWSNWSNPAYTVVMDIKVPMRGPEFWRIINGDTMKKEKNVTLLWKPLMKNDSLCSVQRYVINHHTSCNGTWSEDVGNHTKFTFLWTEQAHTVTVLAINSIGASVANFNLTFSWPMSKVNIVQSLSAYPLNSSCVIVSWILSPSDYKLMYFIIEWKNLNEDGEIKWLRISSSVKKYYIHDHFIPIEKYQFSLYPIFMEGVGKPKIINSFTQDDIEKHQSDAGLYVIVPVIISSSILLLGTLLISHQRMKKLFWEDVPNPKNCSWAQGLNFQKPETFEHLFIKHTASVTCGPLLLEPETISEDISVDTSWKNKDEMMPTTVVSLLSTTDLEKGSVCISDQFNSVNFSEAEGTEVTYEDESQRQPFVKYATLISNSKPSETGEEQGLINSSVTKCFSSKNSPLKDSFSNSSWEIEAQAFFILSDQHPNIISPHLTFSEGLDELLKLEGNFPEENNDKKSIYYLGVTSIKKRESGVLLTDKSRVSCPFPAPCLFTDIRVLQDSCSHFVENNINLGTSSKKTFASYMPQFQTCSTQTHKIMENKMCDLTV", "assay": "cell-based or functional assay", "note": "Non-standard residues stand in square brackets, D forms with d. No end group written: not given here. *: point of attachment. αGalNAc = CC(=O)N[C@@H]1[C@@H](O)[C@@H](O)[C@@H](CO)O[C@@H]1*; Tyr(3,5-I2) = N[C@@H](Cc1cc(I)c(O)c(I)c1)C(=O)O; Ahx = NCCCCCC(=O)O"}
{"binder": "B1", "values": [{"measurement": "EC50 (nM), proliferation of ObR-positive LN229 glioblastoma cells, no exogenous leptin", "value": "< 1", "unit": "nM"}, {"measurement": "IC50 (nM), inhibition of leptin-induced (12 nM leptin) proliferation of ObR-positive LN229 cells", "value": 100, "unit": "nM"}]}
